Source: patent US20080107662A1

How the values were obtained:
[1] = target: MBP-ABL (E. coli) [MBP: P0AEX9]; experiment: ELISA control without serum, antigen MBP-ABL
[2] = target: Maltose Binding Protein (MBP) (E. coli) [MBP: P0AEX9]; experiment: ELISA control without serum, antigen MBP
38C13 IgM Id = experiment: ELISA control without serum, antigen 38C13 IgM Id

ELISA reading [1]: 0.052
ELISA reading [2]: 0.055
ELISA reading (38C13 IgM Id): 0.09
Substance: Secondary Ab only (antibody)
